Data on 94 variants can be found in the supplement of paper PMC10567573.

B1: KLHDC10 (parent)
chain: PSLLELAWEKLLAAFPNLANLSRT
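Note: lentivirally expressed fusions sorted by FACS into six bins by GFP to DsRed ratio, PSI derived from sequencing read proportions per bin multiplied by bin number.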

The series covers variants of B1. The series can be described thus: protein stability index of a GFP-peptide fusion (GPS, HEK-293T) (PSI 1-6); higher = more stable. Particulars: c terminus: a fixed tail appended.
Take PSLLELAWEKLLAAFFNLANLSRT [P16F]: the protein stability index was 1.51.
As for PSLLELAWEKLLAAFQNLANLSRT [P16Q], the protein stability index was 2.12.
Consider PSLLELAWEKLLAAFTNLANLSRT [P16T], for which the protein stability index stood at 2.01.
Take PSLLELAWEKLLAAFDNLANLSRT [P16D]: the protein stability index came to 2.2.
The figure for PSLLELAWEKLLAAFVNLANLSRT [P16V] is 3.1.
Regarding PSLLELAWEKLLAAFGNLANLSRT [P16G], the protein stability index was determined as 1.25.
PSLLELAWEKLLAAFCNLANLSRT [P16C]: the protein stability index is 2.23.
Turning to PSLLELAWEKLLAAFMNLANLSRT [P16M], the protein stability index came out at 2.62.
On to PSLLELAWEKLLAAFYNLANLSRT [P16Y], for which the protein stability index was 2.06.
As for PSLLELAWEKLLAAFHNLANLSRT [P16H], the figure is 1.55; as for PSLLELAWEKLLAAFLNLANLSRT [P16L], 1.78.
As for PSLLELAWEKLLAAFENLANLSRT [P16E], the figure is 1.45.
As for PSLLELAWEKLLAAFWNLANLSRT [P16W], the protein stability index is 2.35.
For the variant PSLLELAWEKLLAAFANLANLSRT [P16A], the protein stability index worked out at 1.84.
As for PSLLELAWEKLLAAFINLANLSRT [P16I], the figure is 1.63; as for PSLLELAWEKLLAAFNNLANLSRT [P16N], 2.03.
As to PSLLELAWEKLLAAFSNLANLSRT [P16S], the protein stability index amounted to 1.4.
With PSLLELAWEKLLAAFPSLANLSRT [N17S], the protein stability index is 2.29.
For PSLLELAWEKLLAAFPQLANLSRT [N17Q], the protein stability index turned out to be 1.94.
As for PSLLELAWEKLLAAFPTLANLSRT [N17T], the figure is 1.8; as for PSLLELAWEKLLAAFPLLANLSRT [N17L], 2.15; as for PSLLELAWEKLLAAFPYLANLSRT [N17Y], 2.44.
On to PSLLELAWEKLLAAFPRLANLSRT [N17R], for which the protein stability index worked out at 2.09.
The figure for PSLLELAWEKLLAAFPKLANLSRT [N17K] is 1.43; for PSLLELAWEKLLAAFPVLANLSRT [N17V] it is 2.18.
As for PSLLELAWEKLLAAFPALANLSRT [N17A], the figure is 2.5; as for PSLLELAWEKLLAAFPMLANLSRT [N17M], 2.56; as for PSLLELAWEKLLAAFPILANLSRT [N17I], 2.01.
With PSLLELAWEKLLAAFPGLANLSRT [N17G], the protein stability index worked out at 3.66.
As for PSLLELAWEKLLAAFPCLANLSRT [N17C], the protein stability index turned out to be 1.81.
The figure for PSLLELAWEKLLAAFPPLANLSRT [N17P] is 1.97.
The figure for PSLLELAWEKLLAAFPFLANLSRT [N17F] is 2.25; for PSLLELAWEKLLAAFPWLANLSRT [N17W] it is 2.94; for PSLLELAWEKLLAAFPHLANLSRT [N17H] it is 2.13.
With PSLLELAWEKLLAAFPDLANLSRT [N17D], the protein stability index was determined as 2.03.
As for PSLLELAWEKLLAAFPELANLSRT [N17E], the protein stability index stood at 1.62.
For PSLLELAWEKLLAAFPNCANLSRT [L18C], the protein stability index came to 2.23.
Consider PSLLELAWEKLLAAFPNTANLSRT [L18T], for which the protein stability index was 1.96.
In the case of PSLLELAWEKLLAAFPNRANLSRT [L18R], the protein stability index was 1.73.
Turning to PSLLELAWEKLLAAFPNFANLSRT [L18F], the protein stability index is 2.52.
For the variant PSLLELAWEKLLAAFPNNANLSRT [L18N], the protein stability index turned out to be 2.97.
For PSLLELAWEKLLAAFPNGANLSRT [L18G], the protein stability index was determined as 2.56.
Regarding PSLLELAWEKLLAAFPNPANLSRT [L18P], the protein stability index came out at 2.15.
Consider PSLLELAWEKLLAAFPNAANLSRT [L18A], for which the protein stability index was found to be 2.15.
As to PSLLELAWEKLLAAFPNYANLSRT [L18Y], the protein stability index turned out to be 1.86.
Take PSLLELAWEKLLAAFPNDANLSRT [L18D]: the protein stability index came to 2.1.
For PSLLELAWEKLLAAFPNKANLSRT [L18K], the protein stability index was 1.78.
Take PSLLELAWEKLLAAFPNIANLSRT [L18I]: the protein stability index was determined as 2.08.
Turning to PSLLELAWEKLLAAFPNVANLSRT [L18V], the protein stability index is 1.81.
Regarding PSLLELAWEKLLAAFPNQANLSRT [L18Q], the protein stability index stood at 2.35.
As for PSLLELAWEKLLAAFPNEANLSRT [L18E], the protein stability index worked out at 2.35.
As for PSLLELAWEKLLAAFPNWANLSRT [L18W], the figure is 1.82; as for PSLLELAWEKLLAAFPNHANLSRT [L18H], 1.84.
With PSLLELAWEKLLAAFPNMANLSRT [L18M], the protein stability index amounted to 1.84.
On to PSLLELAWEKLLAAFPNSANLSRT [L18S], for which the protein stability index amounted to 2.01.
On to PSLLELAWEKLLAAFPNLANLSVT [R23V], for which the protein stability index stood at 2.33.
As to PSLLELAWEKLLAAFPNLANLSET [R23E], the protein stability index came to 1.87.
As for PSLLELAWEKLLAAFPNLANLSQT [R23Q], the protein stability index stood at 2.1.
Consider PSLLELAWEKLLAAFPNLANLSST [R23S], for which the protein stability index was found to be 1.55.
The figure for PSLLELAWEKLLAAFPNLANLSKT [R23K] is 2.16.
Take PSLLELAWEKLLAAFPNLANLSLT [R23L]: the protein stability index was found to be 2.42.
Turning to PSLLELAWEKLLAAFPNLANLSIT [R23I], the protein stability index was found to be 1.78.
As to PSLLELAWEKLLAAFPNLANLSDT [R23D], the protein stability index came to 1.28.
For PSLLELAWEKLLAAFPNLANLSPT [R23P], the protein stability index stood at 1.99.
As for PSLLELAWEKLLAAFPNLANLSFT [R23F], the figure is 1.96; as for PSLLELAWEKLLAAFPNLANLSCT [R23C], 1.98.
Take PSLLELAWEKLLAAFPNLANLSYT [R23Y]: the protein stability index was determined as 1.67.
With PSLLELAWEKLLAAFPNLANLSNT [R23N], the protein stability index stood at 2.17.
As for PSLLELAWEKLLAAFPNLANLSAT [R23A], the figure is 1.55.
Take PSLLELAWEKLLAAFPNLANLSTT [R23T]: the protein stability index is 2.22.
Take PSLLELAWEKLLAAFPNLANLSGT [R23G]: the protein stability index came out at 2.76.
As for PSLLELAWEKLLAAFPNLANLSMT [R23M], the figure is 1.87; as for PSLLELAWEKLLAAFPNLANLSWT [R23W], 2.34.
The figure for PSLLELAWEKLLAAFPNLANLSHT [R23H] is 2.02.
Take PSLLELAWEKLLAAFPNLAQLSRT [N20Q]: the protein stability index turned out to be 2.09.
As for PSLLELAWEKLLAAFPNLAFLSRT [N20F], the protein stability index worked out at 2.17.
Consider PSLLELAWEKLLAAFPNLASLSRT [N20S], for which the protein stability index worked out at 2.59.
Take PSLLELAWEKLLAAFPNLARLSRT [N20R]: the protein stability index is 1.89.
PSLLELAWEKLLAAFPNLACLSRT [N20C]: the protein stability index was 2.68.
With PSLLELAWEKLLAAFPNLAKLSRT [N20K], the protein stability index stood at 1.49.
Consider PSLLELAWEKLLAAFPNLAMLSRT [N20M], for which the protein stability index is 3.12.
For PSLLELAWEKLLAAFPNLAILSRT [N20I], the protein stability index amounted to 2.24.
Take PSLLELAWEKLLAAFPNLADLSRT [N20D]: the protein stability index came out at 1.51.
Turning to PSLLELAWEKLLAAFPNLAYLSRT [N20Y], the protein stability index is 2.22.
Regarding PSLLELAWEKLLAAFPNLALLSRT [N20L], the protein stability index turned out to be 1.77.
With PSLLELAWEKLLAAFPNLAWLSRT [N20W], the protein stability index turned out to be 2.04.
As for PSLLELAWEKLLAAFPNLAVLSRT [N20V], the protein stability index is 2.47.
Turning to PSLLELAWEKLLAAFPNLAELSRT [N20E], the protein stability index worked out at 2.25.
Take PSLLELAWEKLLAAFPNLAGLSRT [N20G]: the protein stability index was 2.12.
As to PSLLELAWEKLLAAFPNLATLSRT [N20T], the protein stability index is 1.62.
With PSLLELAWEKLLAAFPNLAALSRT [N20A], the protein stability index worked out at 2.08.
Regarding PSLLELAWEKLLAAFPNLAPLSRT [N20P], the protein stability index came out at 1.89.
PSLLELAWEKLLAAFPNLAHLSRT [N20H]: the protein stability index worked out at 2.46.
As to PSLLELAWEKLLAAFPNLANLTRT [S22T], the protein stability index was found to be 2.3.
